Consider five proteins from publication PMC4709722, “Flavone synthases from Lonicera japonica and L. macranthoides reveal differential flavone accumulation” (Scientific Reports, 2016).

What all share (assay): cells, lysate or membranes
Substrate in data set [1]: O=C1C[C@@H](c2ccc(O)c(O)c2)Oc2cc(O)cc(O)c21
The note with it: NADPH, potassium phosphate, product luteolin.

Substrate in data set [2]: O=C1C[C@@H](c2ccc(O)cc2)Oc2cc(O)cc(O)c21
The note with it: apparent Km; NADPH, potassium phosphate, optimized conditions (about pH 7.5, 37 °C); product apigenin; pH 7.5; 37.0 °C.

Substrate in data set [3]: O=C1C[C@@H](c2ccc(O)cc2)Oc2cc(O)ccc21
The note with it: apparent Km; NADPH, potassium phosphate, optimized conditions (about pH 7.5, 37 °C); product 7,4'-dihydroxyflavone; pH 7.5; 37.0 °C.

[4] abbreviates: apparent Km, optimized conditions (about pH 7.5, 37 °C), pH 7.5, 37.0 °C.

Where a chain is given by its changes, count along the chain named. In names and notes the source's numbering stands.

B1: LmFNSII-1.1 (Lonicera macranthoides; V204M) (protein)
chain: MLIFDLTISFTTLLFLIFTTALLLKVFKKNHKLQPPPSPFTLPIIGHLHLLGPLIHQSFHRLSTLYGPLIQLKIGYIPCVVASTPELAKEFLKTHELAFSSRKHSAAIKLLTYDVSFAFAPYGPYWKFIKKTCTFELLGTRNMNHFLPIRTNEIRRFLQVMLEKAKASEGVNVTEELIKLTNNVISQMMFSTRSSGTEGEAEEMRTLVREVTQIFGEFNVSDFIKLCKNIDIGGFKKRSEDIQKRYDALLEKIISERESERARRGKNRETLGEEGGKDFLDMMLDTMEDGKCEVEITRDHIKALVLDFLTAATDTTAIAVEWTLAELISNPEVFDKAREEIDKVVGKHRLVTELDTPNLPYIHAIIKESFRLHPPIPLVIRKSVQDCTVGGYHISANTILFINIWAIGRNPKYWESPMKFWPERFLESNEPGSVGSTDIKGHHYELLPFGSGRRGCPGMALAMQELPVVLAAMIQCFNWKPVTLDGEELDMSERPGLTAPRAHDLVCVPSARINSFDNF
What is called kcat is the number of substrate molecules converted per active site and unit of time at saturation. On to B1, for which, in data set [1] (optimized conditions), the Km was 8.47 ± 0.52 µM and the kcat turned out to be 5.08 ± 0.30 s⁻¹.

B2: LmFNSII-1.1 (Lonicera macranthoides) (protein)
chain: B1 chain with M204V
As a reminder, the Vmax is the top rate of the reaction or transport when substrate is in excess. A word on the kcat/Km: it is the turnover number divided by the Michaelis constant. Regarding B2, in data set [2], the Km is reported as 1.63 (0.12) μM, the Vmax is 0.021 µM/min, the kcat is 0.2 s⁻¹ and the kcat/Km was determined as 122000 M⁻¹ s⁻¹. Moreover, in data set [3], the Km is on record as 2.38 (0.07) μM, the Vmax turned out to be 0.0738 µM/min, the catalytic constant (kcat) stood at 0.7 s⁻¹ and the kcat/Km worked out at 295000 M⁻¹ s⁻¹. In addition, in data set [1] (setting [4]), the Km is 3.09 (0.17) μM, the Vmax is 0.0462 µM/min, the kcat came to 0.44 s⁻¹ and the kcat/Km was determined as 142000 M⁻¹ s⁻¹.

B3: LjFNSII-1.1 (Lonicera japonica; S122A) (protein)
chain: MWIFDLTISFTTLLFLIFTTALLLLLKVFKKNHKLRPPPSPFTLPIIGHLHLLGPLIHQSFHRLSTLYGPLIQLKIGYIPCVVASTPELAKEFLKTHELAFSSRKHSAAIKLLTYDVSFAFAPYGPYWKFIKKTCTFELLGTRNMNHFLPIRTNEIRRFLQVMLEKAKASEGVNVTEELIKLTNNVISQMMFSTRSSGTEGEAEEMRTLVREVTQIFGEFNVSDFIKLCKNIDIGGFKKRSKDIQKRYDALLEKIISERESERARRGKNRETLGEEGGKDFLDMMLDTMEDGKCEVEITRDHIKALVLDFLTAATDTTAIAVEWTLAELISNPEVFDKAREEIDKVVGKHRLVTELDTPNLPYIHAIIKESFRLHPPIPLLIRKSVQDCTVGGYHISANTILFVNIWAIGRNPKYWESPMKFWPERFLESNGPGPVGSMDIKGHHYELLPFGSGRRGCPGMALAMQELPVVLAAMIQCFNWKPVTLDGEELDMSERPGLTAPRAHDLVCVPSARINSFDNF
Turning to B3, in data set [1] (optimized conditions), the Km was 10.53 ± 1.18 µM and the kcat was 6.08 ± 0.5 s⁻¹.

B4: LjFNSII-2.1 (Lonicera japonica) (protein)
chain: B3 chain with A122S, K242E
Consider B4, for which, in data set [2], the Km is on record as 1.63 (0.06) μM, the maximum rate (Vmax) turned out to be 0.0288 µM/min, the catalytic constant (kcat) was found to be 0.28 s⁻¹ and the specificity constant (kcat/Km) worked out at 170000 M⁻¹ s⁻¹. In addition, in data set [3], the Km was 2.56 (0.03) μM, the Vmax worked out at 0.124 µM/min, the turnover number (kcat) came to 1.18 s⁻¹ and the kcat/Km stood at 462000 M⁻¹ s⁻¹. In data set [1] (setting [4]), the Km was 2.05 (0.04) μM, the maximal velocity (Vmax) was 0.0984 µM/min, the catalytic constant (kcat) stood at 0.94 s⁻¹ and the kcat/Km was 460000 M⁻¹ s⁻¹.

B5: LjFNSII-1.1 (Lonicera japonica) (protein)
chain: B3 chain with A122S
Turning to B5, in data set [2], the Km is reported as 9.93 (0.64) μM, the maximum rate (Vmax) stood at 0.166 µM/min, the kcat was determined as 1.59 s⁻¹ and the kcat/Km came out at 160000 M⁻¹ s⁻¹. Moreover, in data set [3], the Km is on record as 6.48 (0.26) μM, the Vmax was determined as 0.461 µM/min, the kcat came out at 4.41 s⁻¹ and the specificity constant (kcat/Km) is 681000 M⁻¹ s⁻¹. For the same protein, in data set [1] (setting [4]), the Km is recorded as 5.07 (0.05) μM, the maximal velocity (Vmax) amounted to 0.267 µM/min, the kcat stood at 2.56 s⁻¹ and the kcat/Km came to 504000 M⁻¹ s⁻¹.
